Results from US20020031818A1, “Modification of Mdm2 activity” (priority 2000, published 2002).

Tests used:
Mdm2 = Mdm2 (Homo sapiens, UniProt Q00987); experiment: Mdm2 sumoylation in EJ cells; assay type: cell-based, mouse; set-up: expressed in transfected cells; host or cells: EJ mouse fibroblasts (p19ARF null); settings: EJ cells (lack p19ARF), Flag-Mdm2 and p19ARF constructs 2 μg
Procedure: FIG. 13A-13E. A. Bacterially expressed and purified Mdm2 (1 μg) was incubated with ^32P-labeled Sumo-1, purified Aos1/Uba2 and Ubc9 (0.5 μg) for 60 min at 37° C. in conjugation buffer. For indicated time-periods in vitro translated wt or mutant p19^ARF ([…]) was added to the sumoylation reactions. Upper panel depicts the amount of Sumoylated Mdm2, lower panel reveal the level of Mdm2 and Sumo-Mdm2 in Coomassie blue gel. B. Bacterially expressed and purified Mdm2 (1 μg) was incubated with in vitro-translated ^35S-Sumo, purified Aos1/Uba2 and Ubc9 (0.5 μg) for 60 min at 37° C. in conjugation buffer in the presence of the increasing amounts of bacculovirus-expressed p19^ARF (0, 0.1, 0.5, 1 μg; lanes 1-4 respectively). Bead-bound complexes were washed before being denatured in 3× Sample Buffer. Proteins were separated on 8% SDS-PAGE. Gel was stained with Coomassie blue to verify equal Mdm2 input (lower panel), dried and exposed to X-ray film, which depicts SUMO-1 conjugation to Mdm2 in the presence of the indicated p19 forms (upper panel). […] (Left) Immunoprecipitated Mdm2 was detected using monoclonal Mdm2 antibodies (2A10, left). […] SUMO-conjugation to Mdm2 was detected using monoclonal antibodies to SUMO-1 (top). […]

GST-Mdm2 = biological target: T1, GST-Mdm2 (Homo sapiens, UniProt Q00987); experiment: In vitro conjugation of SUMO-1 to GST-Mdm2 (in vitro sumoylation); assay type: biochemical
T1 construct: made in house
T1 sequence (Q00987 whole entry): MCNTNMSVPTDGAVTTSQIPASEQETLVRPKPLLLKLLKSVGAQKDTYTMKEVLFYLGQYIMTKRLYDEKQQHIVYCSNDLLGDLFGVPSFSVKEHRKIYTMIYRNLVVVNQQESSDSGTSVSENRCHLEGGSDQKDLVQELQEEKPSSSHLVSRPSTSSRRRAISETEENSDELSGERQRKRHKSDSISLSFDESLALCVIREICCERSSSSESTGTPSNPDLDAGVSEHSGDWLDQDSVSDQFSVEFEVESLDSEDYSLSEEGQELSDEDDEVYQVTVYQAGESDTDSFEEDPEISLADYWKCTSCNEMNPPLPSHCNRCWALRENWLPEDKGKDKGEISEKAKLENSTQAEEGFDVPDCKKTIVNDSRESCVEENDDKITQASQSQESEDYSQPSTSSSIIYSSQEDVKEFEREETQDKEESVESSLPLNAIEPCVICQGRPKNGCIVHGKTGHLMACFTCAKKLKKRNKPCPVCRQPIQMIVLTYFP
Procedure: A. Time dependent Mdm2 sumoylation in vitro. Bacterially expressed and purified GST-Mdm2 was subjected to in vitro sumoylation reaction in the presence of E1, Ubc9, and ^35S-Sumos. Reaction was terminated after 10,30,50 or 60 minutes, Proteins were separated on 8% gel, Commassie stained, dryed and exposed overnight (upper panel). Lower panel depicts Commassie blue staining of Mdm2 forms. […] (Upper part) The specific Ubc-9-binding site peptide or a nonspecific peptide was added to the reaction for the indicated time periods. […] The lower panel depicts a Coomassie staining visualizing relative amounts of sumoylated and non-sumoylated forms of purified GST-Mdm2. C. The Mdm2 sumoylation assay was carried out in the presence of Ubc-9-binding site peptide (mu9bs) or a nonspecific peptide (mu9bs) which were added to the reaction at the indicated concentrations. […] Mdm2/p53 double null cells were transfected with Flag-tagged Mdm2, HA-tagged Sumo-1 and increasing amounts of the specific or nonspecific Ubc-9-peptides, respectively. Cells were harvested 36 h later and 500 μg of protein was immunoprecipitated using Mdm2 antibodies (2A10). Immunoprecipitated Mdm2 levels were detected using 2A10 antibodies (top). The same membrane was stripped and reprobed using monoclonal antibodies against Sumo-1 (Zymed, middle) to visualize the level of Sumo-1 conjugation to Mdm2 after Ubc-9-peptide expression.
A. Bacterially expressed and purified Mdm2 (1 μg) was incubated with ^32P-labeled Sumo-1, purified Aos1/Uba2 and Ubc9 (0.5 μg) for 60 min at 37° C. in conjugation buffer. For indicated time-periods in vitro translated wt or mutant p19^ARF (0.5 mg) was added to the sumoylation reactions. Upper panel depicts the amount of Sumoylated Mdm2, lower panel reveal the level of Mdm2 and Sumo-Mdm2 in Coomassie blue gel. B. Bacterially expressed and purified Mdm2 (1 μg) was incubated with in vitro-translated ^35S-Sumo, purified Aos1/Uba2 and Ubc9 (0.5 μg) for 60 min at 37° C. in conjugation buffer in the presence of the increasing amounts of bacculovirus-expressed p19^ARF (0, 0.1, 0.5, 1 μg; lanes 1-4 respectively). Bead-bound complexes were washed before being denatured in 3× Sample Buffer. Proteins were separated on 8% SDS-PAGE. Gel was stained with Coomassie blue to verify equal Mdm2 input (lower panel), dried and exposed to X-ray film, which depicts SUMO-1 conjugation to Mdm2 in the presence of the indicated p19 forms (upper panel). […] Double-null cells were transfected with Flag-tagged Mdm2 (1.5 μg), HA-tagged SUMO (1.5 μg) and p19 wt (1.5 μg). Cells were treated with MG132 (40 mM) for 5 h prior to protein preparation. […] (Left) Immunoprecipitated Mdm2 was detected using monoclonal Mdm2 antibodies (2A10, left). […]

Mdm2, sequence (Q00987 whole entry): as above

B1: p19^ARF: Mdm2-regulating protein; in vitro translated, bacculovirus-expressed or transfected (protein)
chain: MGRRFLVTVRIQRAGRPLQERVFLVKFVRSRRPRTASCALAFVNMLLRLERILRRGPHRNPGPGDDDGQRSRSSSSAQLRCRFELRGPHYLLPPGARRSAGRLPGHAGGAARVRGSAGCARCLGSPAARLGPRAGTSRHRAIFAFRWVLFVFRWVVFVYRWERRPDRRA
Mdm2 sumoylation in EJ cells upon co-expression (Mdm2): inhibition of Mdm2 sumoylation
in vitro sumoylation of Mdm2 with p19ARF purified from insect cells (GST-Mdm2; 0, 0.1, 0.5, 1 μg bacculovirus-expressed p19ARF): inhibited in a dose-dependent manner
GST-Mdm2 sumoylation in vitro with in vitro-translated p19 forms (GST-Mdm2; in vitro-translated wt or mutant p19ARF): efficient inhibition of GST-Mdm2 sumoylation in vitro
